In US20230322906A1:

biological target: trimeric Env protein (HIV-1 Env gp140 trimer antigens of the panel: ZM197, CNE55, CZA97); test: ELISA (AUC) on HIV-1 Env gp140 trimer and gp120 monomer panel

Binder	binding to trimeric Env protein relative to monomeric Env protein
4487-4 (antibody, V domains shown) V domain 1: QVQLVQSGTELTKPGMSVKISCRASGTTFTRPYVHWVRQAPGQGLEWMGMINPTGVNVFSAQKFQGRVTMTRQTSTHTSFLELVSLTGDDTAVYYCATSSGVVSLRSAFDIWGQGTILIVSS V domain 2: QSALSQPASVSGSLGQSITISCSGVGSDAVTYTVVSWYQQHPTKAPKIIISDGDKRPSGVSSRFSGSKSGNTAFLRISGLQTDDEALYYCCSYVGSNTWVFGGGTTVTVL	> 3 times
4513-14 (antibody, V domains shown) VH: QVQLVQSGREVKKFGSSVRVSCKASGGSFDTYAISWVRQAPGQGLEWMGQITPMFGTSHMSQRFQGRLTIDTDDSTGTVFMDMRGLRTEDSATYYCAKDWSFDDDGGAYVPSAMDVWGQGTTVIVSS VL: EIVLTQSPGTLSVSPGERATLSCKASQSISSSSLAWYRQTPGQTPTLLIYGTSTRATGIPDRFSGRGSGTDFTLTITNVKPEDFAVYYCQQYGSSPFTFGPGTRLDFR	> 3 times
4513-12 (antibody, V domains shown) VH: QLQLQESGPGLVKPSETLALTCSVSGGSIFSSNYYWAWIRQPPGKGLEWMGSVYFSGTTFYNPSLKSRVIVSVDTAKNQFSLKLNSVSAADTAIYYCARDVRMRSGRPRQYCMDVWGKGTTVTVSS VL: EVVLTQSPGTLSLSPGERATLSCRASQSVNSIYLAWYQQKPGQAPRLLIYGASNRAAGIPDRFSGSGSGTDFTLTIDRLEPEDFAVYYCQQYDTSPAVTFGPGTKVEIK	> 3 times
4513-11 (antibody, V domains shown) VH: QVQLAQSGAEVKKPGSSVKVSCHVSGGTFSTYAINWVRQAPGHGPEWMGRITPISGATDYAQKFQARITISADESTSAAYLEVRTLRSDDTAVYYCARVGQPKFFERSSDGEHFQHWGQGTLVTVSS VL: DIQMTQSPSTLSASVGDRTTITCRASQNIDKWLAWYQQKPGKAPTVLIFKASTLESGVPSRFSGSSSGTEFTLTIDNLQPEDSATYFCHQYSRYPWTFGQGTKVELK	> 3 times
4487-5 (antibody, V domains shown) VH: QMQLVQSGPEVRKPGSSVKVSCKASGGTFDNSAITWVRQAPGQGLEWMGGIIPFVGAAAYAQRFLGRATITADASTTSSYLELRGLTSDDTGVYFCARDGLRLNFYYYGMDVWGQGTPIIVSS VL: QIVLTQSPGTLSLSPGDTATLSCRASQRVTHTHLAWYQQKPGQPPRLLIYATSQRATGIPDRFRGSGSGRDFTLTIASLEPEDFAVYYCQQNGESPRMFGQGTKLDVK	> 3 times

biological target: BG505.SOSIP CD4bs variants (BG505.SOSIP.D368R, BG505.SOSIP.N279K, BG505.SOSIP.D368R/N279K (DKO)); test: ELISA AUC normalized to BG505.SOSIP.backbone

Binder	fold decrease in binding against BG505.SOSIP Env
4591-2 (antibody, V domains shown) VH: QVQLQQWGAGLLKPSETLSLTCDVSGGSFSDFYWSWVRQSPGKGLEWIGDINHSGSSNYIPSLDGRVTISVDTSRSQFSLNLTSVTAADTAIYFCARKVWPFNGMDVWSQGTTVTVSS VL: ATQLTQSPSFLSASVGDRVTITCRASQGIRNFLAWYQQKPGKAPNLLIYAASTLQSGVPSRFAGSGSGTEFTLTINNVQPEDFATYYCQQLTNYATFGQGTKLEIQ	> 2 fold
6420-35 (antibody, V domains shown) VH: EVQLVESGGDLVQPGGSLRLSCLGSGFDFRTYGMNWVRQAPGKGLEWVSYISSTSSAIYYTDSIEGRFTISRDNGKNLLSLQMSSLRDEDTAVYYCARGGSLWFGREFHAMDVWGRGTTVTVSS VL: QAVVTQEPSLTVSPGGTVTLTCGSSTGAVTSDHYPYWFQQKPGQAPRTLIYDTINRHSWAPARFSASLLGGKAALTLSGAQPEDEAEYYCLLSYSGARRVFGGGTKLTVL	> 2 fold
6420-48.1 (antibody, V domains shown) VH: EVQLVESGGGLVQPGGSLRLSCAASGFTFNTYEMNWVRQAPGKGLEWVSYISGTGNNIYYADSVKGRFTISRDNAKNSLYLQMDNLRAEDTAVYYCARGGQLWFGERLYFHFWGQGTLVAVSS VL: DIQMSQSPSSLSASVGDRVTITCRASQSIGNNLNWYQQKPGKAPNLLIYAASNLQSGVPSRFSGSGSGTDFSLTISSLQPEDFTIYYCQQSFSTPITFGQGTRLEIK	> 2 fold
6420-233.1 (antibody, V domains shown) VH: EVQLVESGGALVQPGGSLRLSCAASGFNFISYGMNWVRQAPGKGLEWISYISSASNTIYYADSVKGRFTISRDNAKNSLYLQMTSLRDGDSALYYCARDIVTIFFRGRSQHAFSVWGQGTAVAVSS VL: SYVLTQPPSVSVAPGQTARITCGGNNIGSKNVHWYQQKPGQAPVLVVYDNSDRPSGVPERFSGSNSGNTATLTITRVEAGDEADYYCQVWDISSDHQVFGGGTKLTAL	> 2 fold
6420-233.2 (antibody, V domains shown) VH: EVQLVESGGGLVQPGGSLRLSCAASGFDFRTYSMNWVRQAPGKGLEWLSYISSTSATIYSADSVKGRFTISRDNAKNSVYLQMNSLRVDDTAVYFCARERITVFFRGRSQHASNVWGQGTMVTVSS VL: SYVLTQAPSVSVAPGQTARITCGGDNIGNKNAHWYQQKPGQAPVLVVYDNSDRPSGIPERFSGSNSGNTATLTISRVEAGDEADYFCQVWDSSSDHQVFGGGTKLTVL	> 2 fold
6420-48.2 (antibody, V domains shown) VH: EVQLVESGGGLVRPGGSLRLSCAASGFTFNTYEMNWVRQAPGKGLEWLSYISSTGNNIFYADSVKGRFTISRDNAKNSLYLQMNNVRTDDTALYYCARGGQLWFGERLNFQHWGQGTQVTVSS VL: DIQMTQSPSSLSASVGDRVTITCRASQTISNNLNWYQQKPGKAPKFLIYSVSVLQSGVPSRFSGSGSGTDFTLTITSLQPEDFATYYCQQSHSTPLTFGQGTRLEIK	> 2 fold
